These results are taken from US20120295811, “APTAMERS DIRECTED AGAINST THE MATRIX PROTEIN-1 OF TYPE A INFLUENZA VIRUSES AND USES […]” (published 2012).

This data set has as its target Matrix protein-1 (M1) (Influenza A virus) (UniProt B4URD8). The following applies: low-density aptamer microarray, 50x dilution.

With tRNA, the binding signal (fluorescence units) was -55.
